This is an account of results in article PMC2843741.

In this assay the target is GST-CypA (UniProt P62937). The assay can be described thus: pull-down; 35S-labelled in vitro translated proteins incubated overnight in binding buffer with about 2.0 µg purified GST fusion or GST alone; glutathione Sepharose beads; 5 washes with PBS, 0.25% NP-40; SDS-10% PAGE, fluorography.
Sequence of UniProt P62937 (P62937 whole entry, the tested form may be a part): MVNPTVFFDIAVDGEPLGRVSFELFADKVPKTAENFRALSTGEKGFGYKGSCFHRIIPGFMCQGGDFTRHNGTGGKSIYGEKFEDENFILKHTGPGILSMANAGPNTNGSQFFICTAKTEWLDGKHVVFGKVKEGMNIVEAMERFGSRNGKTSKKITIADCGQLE

In the case of “HA-wt NS5A with in-frame deletion of amino acids 271-360 (domain or fragment)”, the percent of input pulled down is 8 to 9 % of input.
The value for “HA-wt NS5A with in-frame deletion of amino acids 361-451 (domain or fragment)” was 5 % of input.
